US20180265573A1

Target: hemagglutinin of influenza A virus A/New Caledonia/20/99 (H1) (influenza A virus A/New Caledonia/20/99 (H1))

B1: monoclonal antibody GG3 (antibody, V domains shown)
VH: QIQLVQSGPELKKPGETVKISCKASGYTFTNYGMNWVKQAPGKGLKWMGWINIYSGESTYVDDFTGRFAFSLETSASTAYLQINNLKNEDMATYFCARSGDTMITAGRSFFAMDYWGQGTSVTVSS
VL: DIQMTQSPSSLSASLGERVSLTCRASQEISGYLSWLQQKPDGTIKRLIYAASTLDSGVPKRFSGSRSGSDYSLSISSLESEDFADYYCLQYANYPWSFGGGTKLEIK
- IC50 (read off the curve), plaque reduction neutralization assay: 6 µg/mL
